According to patent publication US20080213265A1 (INSTITUTE FOR RESEARCH IN BIOMEDICINE, published 2008):

What was measured:
[1] = molecular target: UL130/UL131A of a clinical hCMV isolate (virus used in the neutralisation assay) (human cytomegalovirus (hCMV), UniProt P16772 26-214); experiment: cell-based or functional assay
[2] = molecular target: T1, HA-tagged UL128Δ1-27 hCMV protein expressed in HEK293T cells (human cytomegalovirus (hCMV), UniProt P16837 28-171); experiment: FACS staining of fixed, permeabilized transfected HEK293T cells
T1 construct: mature; not shown: hemagglutinin (HA) tag
T1 sequence: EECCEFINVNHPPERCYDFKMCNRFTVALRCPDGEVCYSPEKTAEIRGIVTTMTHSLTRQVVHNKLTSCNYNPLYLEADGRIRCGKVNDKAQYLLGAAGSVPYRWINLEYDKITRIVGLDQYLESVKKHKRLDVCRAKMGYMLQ

[3] = molecular target: T2, HA-tagged UL130Δ1-25 hCMV protein expressed alone in HEK293T cells (human cytomegalovirus (hCMV), UniProt P16772 26-214); experiment: as above
T2 construct: mature; not shown: hemagglutinin (HA) tag

B1: human monoclonal antibody 5A2 (antibody, V domains shown)
VH: QVQLVQSGAEVRKPGSSVKVSCKASGGTFSSYVIHWVRQAPGQGLEWMGGIIPIFNTANYAQKVQGRVTITADESTSTAYMELSSLRSEDTAIYYCARDFLSGPMEMPGGYYGLDVWGQGTTVTVSS
VL: not shown
notes: Human IgG from an immortalised B cell clone
With B1 the “50% neutralisation (µg/ml), Endothelial cells” value [1] was 0.002 µg/mL, the “50% neutralisation (µg/ml), Fibroblasts” value [1] was over 2 µg/mL and the binding result [2] was “no binding”. B1: no binding [3].

B2: human monoclonal antibody 1F11 (antibody, V domains shown)
VH: QVQLVESGGGVVQPGRSVRLSCVASGFTFSSYAMHWVRQAPGKGLEWVSLISFDGDNKYYADSVRGRFTISRDSSQKTLFLQMNSLRVEDTAIYYCAREELVGLMPPYYNYGLDVWGQGTTVTVSS
VL: QSVLTQPPSVSAAPGQKVTISCSGSSSNIGNNFVSWYQQLPGTAPKLLIYDNDRRPSGIPDRFSGSKSDTSATLVITGLQTGDEADYYCETWDGSLNPAVVFGGGTRLTVL
notes: Human IgG from an EBV-immortalised B cell clone
In the case of B2, the “50% neutralisation (µg/ml), Endothelial cells” value [1] is reported as 0.001 µg/mL, the “50% neutralisation (µg/ml), Fibroblasts” value [1] is reported as over 2 µg/mL and the binding result [2] is reported as “no binding”. B2: no binding [3].

B3: human monoclonal antibody 2F4 (antibody, V domains shown)
VH: QVQLVESGGGVVQPGRSLRLSCAASGFSFNTYGMHWVRQAPGKGLEWVAVIWDDGSKMYHADSVKGRFTISRDNSKNTLYLQMNSLRAEDTAVYYCARDEGAIMLHAMTDYGLDVWGQGTTVTV
VL: SYELTQPPSVSVSPGQTATITCSGDNLGDEFACWYQQKPGQSPVLVIYQDSKRPSGIPERFSGSSSGNTATLTIRGTQAMDEADYYCQAWDSSTAHYVFGTGTKVTVL
notes: as for B1
In the case of B3, the “50% neutralisation (µg/ml), Endothelial cells” value [1] is reported as 0.003 µg/mL, the “50% neutralisation (µg/ml), Fibroblasts” value [1] is reported as over 2 µg/mL and the binding result [2] is reported as “no binding”. B3: no binding [3].
